From PMC10830420

Legend:
[1] = molecular target: ORF2p-His8 core (human (Homo sapiens), UniProt O00370 238-1061); experiment: X-ray crystallography (2.1 A); dTTP, Mg2+; DSF: 20 mM HEPES-KOH pH 7.6, 100 mM NaCl, 1 mM DTT, 2 mM Mg acetate, thermal ramp; crystals: protein 3 mg/mL, 50 mM NaCl dilution, 2 mM MgCl2, 2 mM dTTP, 1.3:1
[2] = molecular target: T1, ORF2p core (human (Homo sapiens), UniProt O00370 238-1061); experiment: cryo-EM (3.30 A); dTTP, Mg2+; DSF: 20 mM HEPES-KOH pH 7.6, 100 mM NaCl, 1 mM DTT, 2 mM Mg acetate, thermal ramp; crystals: protein 3 mg/mL, 50 mM NaCl dilution, 2 mM MgCl2, 2 mM dTTP, 1.3:1
[3] = molecular target: T1, ORF2p core; experiment: cryo-EM (3.66 A); DSF: 20 mM HEPES-KOH pH 7.6, 100 mM NaCl, 1 mM DTT, 2 mM Mg acetate, thermal ramp; crystals: protein 3 mg/mL, 50 mM NaCl dilution, 2 mM MgCl2, 2 mM dTTP, 1.3:1

B1: crystallography RNA template:DNA primer hybrid (DNA:RNA)
RNA: UUAGGAAAGCGC
DNA: GCGCTTTCC
modifications: 3' dideoxy-C on DNA primer
- binding result [1]: binds

B2: cryo-EM RNA:DNA hybrid (DNA:RNA)
RNA: GGAGCGAAAUUUUCGC
DNA: GCGAAAATTTCGC
modifications: 3' dideoxy-C on DNA primer
- binding result [2]: binds

B3: oligo-25(A) ssRNA (ssRNA)
RNA: AAAAAAAAAAAAAAAAAAAAAAAAA
- binding result [3]: binds
